Test results as given in patent US20110243928A1.

How the values were obtained:
16 mer peptide 40 = target: T1, 16 mer peptide 40; experiment: 16 mer peptide ELISA
T1 sequence (peptide, N-terminal biotin; C-terminal amide): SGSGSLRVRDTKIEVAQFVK

16 mer peptide 41 = experiment: 16 mer peptide ELISA
Chain of 16 mer peptide 41 (peptide, as listed by the source limits assumed): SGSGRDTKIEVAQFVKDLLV

absorbance at 490 nm (16 mer peptide 40): 0.06 A490 | absorbance at 490 nm (16 mer peptide 41): 0.058 A490
B1: monoclonal antibody 6A1 (antibody, IgG1, V domains shown)
VH: EIQLQQSVAELVRPGASVRLSCTASGFYIKDTYMHWVIQRPEQGLEWIGTIDPANGNTKYVPKFQGKATITADTSSNTAYLRLSSLTSEDTAIYYCARSIYDDYHYDDYYAMDYWGQGTSVTVSS
VL: DVLMTQTPLSLPVSLGDQASISCRSSQNIVHINGNTYLEWYLQKPGQSPKLLIYKISDRFSGVPDRFSGSGSGTDFTLKISRVEAEDLGVYYCFQGSHVPWTFGGGTKLEIK
